From publication PMC8251803

Biological target: cytochrome c oxidase from Aquifex aeolicus (AaCcO), protomer of subunits CoxA2, CoxB2 and IIa (Aquifex aeolicus) (UniProt O67937)
Experiment: cryo-EM structure; single-particle cryo-EM with 3D classification (RELION) of the sample purified from native A. aeolicus membranes by anion exchange and size-exclusion chromatography; fractions with a dominant band around 242 kDa in Blue Native PAGE; two classes of particles (dimeric complex III, dimeric AaCcO); AaCcO dimer at 3.4 Å

- stoichiometry N: 2
Substance: cytochrome c oxidase from Aquifex aeolicus (AaCcO), protomer of subunits CoxA2, CoxB2 and IIa (from UniProt O67937 1-592) (complex)
